This is an account of results in paper PMC8393265.

The test addresses SARS-CoV-2 spike receptor-binding domain (RBD), recombinant, produced in house (SARS-CoV-2) (UniProt P0DTC2). Briefly: SEC. On the technique in general: SEC sorts molecules by how far they enter the pores of the column.

By stoichiometry N is commonly meant the number of molecules, sites or subunits per partner or assembly.

Turning to “SARS-CoV-2 spike receptor-binding domain (RBD), recombinant, produced in house (from UniProt P0DTC2) (domain or fragment)”, the stoichiometry N worked out at 3.
